Results: paper PMC6555819, “Comprehensive study of nuclear receptor DNA binding provides a revised framework for understanding receptor specificity”

What was measured:
[1] = target: PPARg:RXRa (Homo sapiens, UniProt P37231;P19793 full;full); assay: no ligand; PBM; 180 nM : 90 nM RXRa; PBS pH 7.4, 2% milk, 0.02% Triton X-100, 1 mM DTT, BSA, 0.4 mg/ml salmon testes DNA; settings: tags: His kept;His cleaved; copies: 1;1; label: surface-attached array probe
[2] = target: RARa:RXRa (Homo sapiens, UniProt P10276;P19793 full;full); assay: no ligand; PBM; 270 nM : 90 nM RXRa; PBS pH 7.4, 2% milk, 0.02% Triton X-100, 1 mM DTT, BSA, 0.4 mg/ml salmon testes DNA; settings: tags: His kept;His cleaved; copies: 1;1; label: surface-attached array probe
Summary of the method: (§1)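 Probes were double-stranded and carried 34-nt variable regions with direct-repeat seeds, single-nucleotide variants, half-site ablations and random human genomic background sequences, printed on custom Agilent 4×180K protein-binding microarrays. Arrays were incubated 1 h with ligand-free nuclear receptor dimers in PBS pH 7.4, 2% milk, 0.02% Triton X-100, 1 mM DTT, 0.2 mg/mL BSA and 0.4 mg/ml salmon testes DNA. Antibodies against each partner (one per run) detected binding, and scanned fluorescence was regression-normalized. Binding z-scores use the random background probes as reference.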

[3] = target: PPARa:RXRa (Homo sapiens, UniProt Q07869;P19793 full;full); assay: as above; settings: tags: GST kept;His cleaved; copies: 1;1; label: surface-attached array probe
Summary of the method: as §1

[4] = target: PXR:RXRa (Homo sapiens, UniProt O75469;P19793 full;full); assay: as above; settings: tags: His kept;His cleaved; copies: 1;1; label: surface-attached array probe
Summary of the method: as §1

[5] = target: RARg:RXRa (Homo sapiens, UniProt P13631;P19793 full;full); assay: as above; settings: tags: His kept;His cleaved; copies: 1;1; label: surface-attached array probe
Summary of the method: as §1

[6] = target: RARb:RXRa (Homo sapiens, UniProt P10826;P19793 full;full); assay: as above; settings: tags: His kept;His cleaved; copies: 1;1; label: surface-attached array probe
Summary of the method: as §1

[7] = target: LXRb:RXRa (Homo sapiens, UniProt P55055;P19793 full;full); assay: as above; settings: tags: His kept;His cleaved; copies: 1;1; label: surface-attached array probe
Summary of the method: as §1

[8] = target: RXRa (Homo sapiens, UniProt P19793); assay: no ligand; PBM; 180 nM; PBS pH 7.4, 2% milk, 0.02% Triton X-100, 1 mM DTT, BSA, 0.4 mg/ml salmon testes DNA; settings: tags: His cleaved; chain copies: 2; label: surface-attached array probe
[9] = target: LXRa:RXRa (Homo sapiens, UniProt Q13133;P19793 full;full); assay: no ligand; PBM; 270 nM : 90 nM RXRa; PBS pH 7.4, 2% milk, 0.02% Triton X-100, 1 mM DTT, BSA, 0.4 mg/ml salmon testes DNA; settings: tags: His kept;His cleaved; copies: 1;1; label: surface-attached array probe
Summary of the method: as §1

[10] = target: VDR:RXRa (Homo sapiens, UniProt P11473;P19793 full;full); assay: as above; settings: tags: His kept;His cleaved; copies: 1;1; label: surface-attached array probe
Summary of the method: as §1

[11] = target: FXR:RXRa (Homo sapiens, UniProt Q96RI1;P19793 full;full); assay: as above; settings: tags: His kept;His cleaved; copies: 1;1; label: surface-attached array probe
Summary of the method: as §1

Chain of PPARg:RXRa (P37231 29-505, chain 1 of 2): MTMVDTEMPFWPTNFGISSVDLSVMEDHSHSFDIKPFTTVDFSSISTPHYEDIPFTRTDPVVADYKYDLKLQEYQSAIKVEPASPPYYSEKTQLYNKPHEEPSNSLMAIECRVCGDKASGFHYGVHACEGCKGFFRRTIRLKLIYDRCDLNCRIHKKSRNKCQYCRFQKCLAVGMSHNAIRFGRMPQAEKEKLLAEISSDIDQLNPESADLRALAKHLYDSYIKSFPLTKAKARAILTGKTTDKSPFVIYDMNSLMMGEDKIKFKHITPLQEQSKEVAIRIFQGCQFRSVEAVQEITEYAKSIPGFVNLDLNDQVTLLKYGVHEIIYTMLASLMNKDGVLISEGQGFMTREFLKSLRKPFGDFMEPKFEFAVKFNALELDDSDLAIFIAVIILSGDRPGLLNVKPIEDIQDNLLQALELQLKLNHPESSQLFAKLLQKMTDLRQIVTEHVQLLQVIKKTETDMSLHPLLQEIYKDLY
Chain of PPARg:RXRa (P19793 whole entry, chain 2 of 2): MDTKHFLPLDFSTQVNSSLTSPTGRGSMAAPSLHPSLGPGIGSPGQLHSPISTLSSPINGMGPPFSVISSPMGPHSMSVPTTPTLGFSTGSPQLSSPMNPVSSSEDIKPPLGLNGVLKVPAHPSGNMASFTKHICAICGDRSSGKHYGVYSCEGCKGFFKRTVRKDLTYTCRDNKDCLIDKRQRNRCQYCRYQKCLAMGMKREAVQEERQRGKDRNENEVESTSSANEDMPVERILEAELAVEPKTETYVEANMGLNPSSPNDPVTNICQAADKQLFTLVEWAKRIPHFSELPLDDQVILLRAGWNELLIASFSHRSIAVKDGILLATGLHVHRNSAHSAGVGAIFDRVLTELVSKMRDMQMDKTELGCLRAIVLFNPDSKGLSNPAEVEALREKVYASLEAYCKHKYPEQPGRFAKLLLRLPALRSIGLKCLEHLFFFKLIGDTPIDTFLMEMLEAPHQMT
Chain of PXR:RXRa (O75469 whole entry, chain 1 of 2): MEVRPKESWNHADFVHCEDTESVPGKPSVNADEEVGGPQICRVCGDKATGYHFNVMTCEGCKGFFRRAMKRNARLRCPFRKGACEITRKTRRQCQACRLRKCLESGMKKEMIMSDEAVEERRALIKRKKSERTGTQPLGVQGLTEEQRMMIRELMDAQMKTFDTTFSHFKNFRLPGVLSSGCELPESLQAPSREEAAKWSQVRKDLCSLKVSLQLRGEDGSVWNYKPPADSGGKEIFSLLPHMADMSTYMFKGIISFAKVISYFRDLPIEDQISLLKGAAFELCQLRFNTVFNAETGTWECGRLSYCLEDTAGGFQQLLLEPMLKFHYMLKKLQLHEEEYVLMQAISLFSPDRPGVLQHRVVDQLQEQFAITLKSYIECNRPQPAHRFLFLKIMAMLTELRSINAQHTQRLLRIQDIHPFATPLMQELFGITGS
Chain of PXR:RXRa (P19793 whole entry, chain 2 of 2): as the sequence (P19793 whole entry, chain 2 of 2) above
Chain of PPARa:RXRa (Q07869 whole entry, chain 1 of 2): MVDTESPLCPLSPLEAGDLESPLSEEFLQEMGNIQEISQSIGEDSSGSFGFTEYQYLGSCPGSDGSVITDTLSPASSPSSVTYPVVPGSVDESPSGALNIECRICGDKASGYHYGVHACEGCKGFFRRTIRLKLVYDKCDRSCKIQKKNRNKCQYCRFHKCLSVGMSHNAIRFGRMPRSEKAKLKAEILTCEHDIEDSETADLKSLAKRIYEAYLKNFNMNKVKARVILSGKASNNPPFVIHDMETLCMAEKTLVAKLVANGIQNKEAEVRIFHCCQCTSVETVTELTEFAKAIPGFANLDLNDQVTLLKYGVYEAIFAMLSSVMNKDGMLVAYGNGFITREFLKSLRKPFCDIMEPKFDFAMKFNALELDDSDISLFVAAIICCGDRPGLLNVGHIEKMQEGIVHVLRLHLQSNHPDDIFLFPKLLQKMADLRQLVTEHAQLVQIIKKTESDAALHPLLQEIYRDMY
Chain of PPARa:RXRa (P19793 whole entry, chain 2 of 2): as the sequence (P19793 whole entry, chain 2 of 2) above
Chain of LXRb:RXRa (P55055 whole entry, chain 1 of 2): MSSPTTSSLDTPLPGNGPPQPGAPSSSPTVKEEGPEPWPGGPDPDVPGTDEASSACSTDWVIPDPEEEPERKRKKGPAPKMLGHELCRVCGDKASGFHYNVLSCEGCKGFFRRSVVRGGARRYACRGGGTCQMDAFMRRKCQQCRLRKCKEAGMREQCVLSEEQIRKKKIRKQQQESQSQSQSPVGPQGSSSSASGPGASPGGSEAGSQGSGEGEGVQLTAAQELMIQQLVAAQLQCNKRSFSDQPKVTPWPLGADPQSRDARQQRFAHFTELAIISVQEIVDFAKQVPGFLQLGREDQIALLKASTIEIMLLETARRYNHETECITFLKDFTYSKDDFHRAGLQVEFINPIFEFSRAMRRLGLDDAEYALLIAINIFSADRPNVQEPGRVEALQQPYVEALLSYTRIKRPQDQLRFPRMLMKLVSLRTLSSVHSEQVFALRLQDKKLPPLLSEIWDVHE
Chain of LXRb:RXRa (P19793 whole entry, chain 2 of 2): as the sequence (P19793 whole entry, chain 2 of 2) above
Chain of RXRa (P19793 whole entry): as the sequence (P19793 whole entry, chain 2 of 2) above

B1: NRC3_wobSeed38_DR1_T16A_o1 (dsDNA)
DNA 1: GCCCTGCTAGGTCAAAGGTCAGCTAAAGCAGCTCGCGCGATTGACAGCGTAGAATGAAGG
DNA 2: CCTTCATTCTACGCTGTCAATCGCGCGAGCTGCTTTAGCTGACCTTTGACCTAGCAGGGC
binding signal [1]: 12.7 PBM z-score against 500 random probes | binding signal [2]: 8.86 PBM z-score against 500 random probes | binding signal [3]: 6.82 PBM z-score against 500 random probes | binding signal [4]: 6.86 PBM z-score against 500 random probes | binding signal [5]: 8.54 PBM z-score against 500 random probes | binding signal [6]: 5.62 PBM z-score against 500 random probes | binding signal [7]: 5.81 PBM z-score against 500 random probes | binding signal [8]: 10 PBM z-score against 500 random probes

B2: NRC3_wobSeed26_DR1_T9G_o1 (dsDNA)
DNA 1: GCTCTAGTGGGTCAAAGGTCACACACTCGAAATGCGGCGATTGACAGCGTAGAATGAAGG
DNA 2: CCTTCATTCTACGCTGTCAATCGCCGCATTTCGAGTGTGTGACCTTTGACCCACTAGAGC
binding signal [1]: 13.8 PBM z-score against 500 random probes | binding signal [2]: 8.89 PBM z-score against 500 random probes | binding signal [9]: 6.72 PBM z-score against 500 random probes | binding signal [10]: 7 PBM z-score against 500 random probes | binding signal [3]: 7.42 PBM z-score against 500 random probes | binding signal [4]: 6.94 PBM z-score against 500 random probes | binding signal [5]: 8.6 PBM z-score against 500 random probes | binding signal [6]: 5.62 PBM z-score against 500 random probes | binding signal [7]: 6.79 PBM z-score against 500 random probes | binding signal [8]: 10.2 PBM z-score against 500 random probes

B3: NRC3_wobSeed46_DR1_G13C_o1 (dsDNA)
DNA 1: GCTTACCAAGGTCAAAGGTCGTTGATGCACGCCTTGGCGATTGACAGCGTAGAATGAAGG
DNA 2: CCTTCATTCTACGCTGTCAATCGCCAAGGCGTGCATCAACGACCTTTGACCTTGGTAAGC
binding signal [1]: 10.5 PBM z-score against 500 random probes | binding signal [2]: 8.61 PBM z-score against 500 random probes | binding signal [9]: 7.04 PBM z-score against 500 random probes | binding signal [3]: 6.85 PBM z-score against 500 random probes | binding signal [4]: 7 PBM z-score against 500 random probes | binding signal [5]: 7.78 PBM z-score against 500 random probes | binding signal [6]: 5.44 PBM z-score against 500 random probes | binding signal [7]: 6.04 PBM z-score against 500 random probes | binding signal [11]: 8.17 PBM z-score against 500 random probes | binding signal [8]: 9.65 PBM z-score against 500 random probes

B4: NRC3_wobSeed49_DR2_C27T_o1 (dsDNA)
DNA 1: GCCAAACTAGGTCAAGAGGTCAAAGTTCGCTTCCCGGCGATTGACAGCGTAGAATGAAGG
DNA 2: CCTTCATTCTACGCTGTCAATCGCCGGGAAGCGAACTTTGACCTCTTGACCTAGTTTGGC
binding signal [1]: 11 PBM z-score against 500 random probes | binding signal [2]: 8.47 PBM z-score against 500 random probes | binding signal [10]: 6.55 PBM z-score against 500 random probes | binding signal [3]: 6.92 PBM z-score against 500 random probes | binding signal [4]: 6.88 PBM z-score against 500 random probes | binding signal [11]: 7.82 PBM z-score against 500 random probes

B5: NRC3_wobSeed34_DR1_G14A_o1 (dsDNA)
DNA 1: GCATCGAAAGGTCAAAGGTGAGTATACCCACCCGAAGCGATTGACAGCGTAGAATGAAGG
DNA 2: CCTTCATTCTACGCTGTCAATCGCTTCGGGTGGGTATACTCACCTTTGACCTTTCGATGC
binding signal [1]: 10 PBM z-score against 500 random probes | binding signal [2]: 8.66 PBM z-score against 500 random probes | binding signal [9]: 7.65 PBM z-score against 500 random probes | binding signal [3]: 7.53 PBM z-score against 500 random probes | binding signal [4]: 6.57 PBM z-score against 500 random probes | binding signal [5]: 8.43 PBM z-score against 500 random probes | binding signal [6]: 6.19 PBM z-score against 500 random probes | binding signal [7]: 6.85 PBM z-score against 500 random probes | binding signal [11]: 8.87 PBM z-score against 500 random probes | binding signal [8]: 10.1 PBM z-score against 500 random probes

B6: NRC3_wobSeed42_DR1_A8G_o1 (dsDNA)
DNA 1: GCTATACGGGGTCAAAGGCCAGAGTACGAATGTCGAGCGATTGACAGCGTAGAATGAAGG
DNA 2: CCTTCATTCTACGCTGTCAATCGCTCGACATTCGTACTCTGGCCTTTGACCCCGTATAGC
binding signal [1]: 10.7 PBM z-score against 500 random probes | binding signal [2]: 7.79 PBM z-score against 500 random probes | binding signal [9]: 7.28 PBM z-score against 500 random probes | binding signal [10]: 6.76 PBM z-score against 500 random probes | binding signal [3]: 7.07 PBM z-score against 500 random probes | binding signal [4]: 6.54 PBM z-score against 500 random probes | binding signal [5]: 7.59 PBM z-score against 500 random probes | binding signal [7]: 7.1 PBM z-score against 500 random probes | binding signal [11]: 8.52 PBM z-score against 500 random probes | binding signal [8]: 9.41 PBM z-score against 500 random probes

B7: NRC3_wobSeed89_DR3_T13C_o1 (dsDNA)
DNA 1: GCCTATGTAGGTCAAGGGGGTCATTCAGTTTGAAAGGCGATTGACAGCGTAGAATGAAGG
DNA 2: CCTTCATTCTACGCTGTCAATCGCCTTTCAAACTGAATGACCCCCTTGACCTACATAGGC
binding signal [1]: 11.1 PBM z-score against 500 random probes | binding signal [2]: 7.29 PBM z-score against 500 random probes | binding signal [10]: 8.32 PBM z-score against 500 random probes | binding signal [3]: 6.84 PBM z-score against 500 random probes | binding signal [4]: 6.79 PBM z-score against 500 random probes | binding signal [7]: 6.92 PBM z-score against 500 random probes

B8: NRC3_wobSeed121_DR5_G18A_o1 (dsDNA)
DNA 1: GCCAAACTAGGTCACCGAAAGGTCAAAGTCCGCATGGCGATTGACAGCGTAGAATGAAGG
DNA 2: CCTTCATTCTACGCTGTCAATCGCCATGCGGACTTTGACCTTTCGGTGACCTAGTTTGGC
binding signal [1]: 10.5 PBM z-score against 500 random probes | binding signal [2]: 8.55 PBM z-score against 500 random probes | binding signal [9]: 6.91 PBM z-score against 500 random probes | binding signal [3]: 6.77 PBM z-score against 500 random probes | binding signal [4]: 6.93 PBM z-score against 500 random probes | binding signal [6]: 5.67 PBM z-score against 500 random probes | binding signal [7]: 6.47 PBM z-score against 500 random probes

B9: NRC3_wobSeed45_DR1_A20T_o1 (dsDNA)
DNA 1: GCTGTCAAAGTTCAAAGGTTACGTAAGTATCCACACGCGATTGACAGCGTAGAATGAAGG
DNA 2: CCTTCATTCTACGCTGTCAATCGCGTGTGGATACTTACGTAACCTTTGAACTTTGACAGC
binding signal [1]: 9.98 PBM z-score against 500 random probes | binding signal [2]: 8.47 PBM z-score against 500 random probes | binding signal [9]: 7.17 PBM z-score against 500 random probes | binding signal [3]: 6.95 PBM z-score against 500 random probes | binding signal [4]: 6.87 PBM z-score against 500 random probes | binding signal [5]: 7.83 PBM z-score against 500 random probes | binding signal [6]: 5.55 PBM z-score against 500 random probes | binding signal [7]: 5.93 PBM z-score against 500 random probes | binding signal [8]: 9.74 PBM z-score against 500 random probes

B10: NRC3_wobSeed45_DR1_T11G_o1 (dsDNA)
DNA 1: GCTGTCAAAGGTCAAAGGTAACGTAAGTATCCACACGCGATTGACAGCGTAGAATGAAGG
DNA 2: CCTTCATTCTACGCTGTCAATCGCGTGTGGATACTTACGTTACCTTTGACCTTTGACAGC
binding signal [1]: 12.1 PBM z-score against 500 random probes | binding signal [2]: 8.2 PBM z-score against 500 random probes | binding signal [9]: 7.81 PBM z-score against 500 random probes | binding signal [3]: 7.31 PBM z-score against 500 random probes | binding signal [4]: 6.66 PBM z-score against 500 random probes | binding signal [5]: 8.53 PBM z-score against 500 random probes | binding signal [6]: 6.49 PBM z-score against 500 random probes | binding signal [7]: 6.94 PBM z-score against 500 random probes | binding signal [11]: 9.11 PBM z-score against 500 random probes | binding signal [8]: 10.1 PBM z-score against 500 random probes

B11: NRC3_wobSeed41_DR1_T13C_o1 (dsDNA)
DNA 1: GCATATGTAGGTCAAGGGTCATTCAGGTTGGTTCGCGCGATTGACAGCGTAGAATGAAGG
DNA 2: CCTTCATTCTACGCTGTCAATCGCGCGAACCAACCTGAATGACCCTTGACCTACATATGC
binding signal [1]: 13.1 PBM z-score against 500 random probes | binding signal [2]: 7.96 PBM z-score against 500 random probes | binding signal [10]: 6.57 PBM z-score against 500 random probes | binding signal [3]: 7.55 PBM z-score against 500 random probes | binding signal [4]: 6.6 PBM z-score against 500 random probes | binding signal [7]: 6.03 PBM z-score against 500 random probes | binding signal [8]: 9.04 PBM z-score against 500 random probes

B12: NRC3_wobSeed41_DR1_G16A_o1 (dsDNA)
DNA 1: GCATATGTAGGTTAAAGGTCATTCAGGTTGGTTCGCGCGATTGACAGCGTAGAATGAAGG
DNA 2: CCTTCATTCTACGCTGTCAATCGCGCGAACCAACCTGAATGACCTTTAACCTACATATGC
binding signal [1]: 13.4 PBM z-score against 500 random probes | binding signal [2]: 8.42 PBM z-score against 500 random probes | binding signal [10]: 6.82 PBM z-score against 500 random probes | binding signal [3]: 7.09 PBM z-score against 500 random probes | binding signal [4]: 6.71 PBM z-score against 500 random probes | binding signal [7]: 5.91 PBM z-score against 500 random probes | binding signal [8]: 9.21 PBM z-score against 500 random probes
